The source of these data is the RNAGym collection of RNA variant scans (doi:10.1073/pnas.2313332121).

The chains are these.
B1: TPR 5TU (parent)
chain: GGAUCUUCUCGAUCUAACAAAAAAGACAAAUCUGCCACAAAGCUUGAGAGCAUCUUCGGAUGCAGAGGCGGCAGCCUUCGGUGGCGCGAUAGCGCCAACGUUCUCAACUAUGACACGCAAAACGCGUGCUCCGUUGAAUGGAGUUUAUCAUG

Fewer inactive variants are shown than the library holds.

In this data set the parent is B1. Briefly: polymerase ribozyme fitness, log enrichment relative to wild type (log ratio); higher = more active; in vitro selection for triplet polymerase activity. The essentials: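 Input and output libraries were sequenced on Illumina after a single in vitro selection round, run in triplicate on PCR-built, transcribed mutant libraries of each subunit of a heterodimeric triplet polymerase ribozyme. Selection annealed libraries to a biotinylated primer, the partner subunit and triplets, incubated them frozen at −7 °C, then gel-excised extended constructs for streptavidin-bead capture and RT-PCR. Genotypes with ≥10 input reads and ≥1 read per output were kept. Fitness is the logarithm, taken in base 2, of genotype enrichment divided by wild-type enrichment, using inverse-variance-weighted replicate averages.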
On to GGAUCUUCUCGAUCUAACAAAAAAGACAAAUCUGCCACAAAGCUUGAGAGCAUCUUCGGAUGCAGAGGCGGCAGCCUUCGGUGGCGCGAUAGGGCCAACGUUCUCAACUAUGACACGCAAAACGCGUGCUCCGUUGAAUGGAGUUUUUCAUG [C93G A147U], for which the “polymerase ribozyme fitness (log ratio)” value is -1.74.
The same measure for GGAUCUUCUCGAUCUAACAAAAAAGACAAAUCUGCCACAAAGCUUGAGAGCAUCUUCGGAUGCAGAGGCGGCAGCCUUCGGUGGCGCGAUAGGGCUAACGUUCUCAACUAUGACACGCAAAACGCGUGCUCCGUUGAAUGGAGUUUAUCAUG [C93G C96U]: -3.61.
For the variant GGAUCUUCUCGAUCUAACAAAAAAGACAAAUCUGCCACAAAGCUUGAGAGCAUCUUCGGAUGCAGAGGCGGCAGCCUUCGGUGGCGCGAUAGUGCCCACGUUCUCAACUAUGACACGCAAAACGCGUGCUCCGUUGAAUAGAGUUUAUCAUG [C93U A97C G140A], the “polymerase ribozyme fitness (log ratio)” value was not above -4.2.
Turning to GGAUCUUCUCGAUCUAACAAAAAAGACAAAUCUGCCACAAAGCUUGAGAGCAUCUUCGGAUGCAGAGGCGGCAGCCUUCGGUGGCGCGAUAGGUACAACGUUCUCAACUAUGACACGCAAAACGCGUACUCCGUUGAAUGGAGUUUAUCAUG [C93G G94U C95A G128A], the “polymerase ribozyme fitness (log ratio)” value is not above -4.2.
Take GGAUCUUCUCGAUCUAACAAAAAAGACAAAUCUGCCACAAAGCUUGAGAGCAUCUUCGGAUGCAGAGGCGGCAGCCUUCGGUGGCGCGAUAGGGCCAACGUUCUCAACUAUGACGCGCAAAACGCGUGCUUCGUUGAAUGGAGUUUAUCAUG [C93G A115G C131U]: the “polymerase ribozyme fitness (log ratio)” value was -3.48.
Take GGAUCUUCUCGAUCUAACAAAAAAGACAAAUCUGCCACAAAGCUUGAGAGCAUCUUCGGAUGCAGAGGCGGCAGCCUUCGGUGGCGCGAUAGUGCCAACGUUCUCCACUAUGACACGCAAAACGCGUGGUCCGUUGAAUGGAAUUUAUCAUG [C93U A106C C129G G143A]: the “polymerase ribozyme fitness (log ratio)” value was -3.64.
The same measure for GGAUCUUCUCGAUCUAACAAAAAAGACAAAUCUGCCACAAAGCUUGAGAGCAUCUUCGGAUGCAGAGGCGGCAGCCUUCGGUGGCGCGAUAGGGCCAACGUUCUCAACUAUGACACGCAAAACGCGUGCUCCGUUGAAUGGAGUGUAUCAUG [C93G U145G]: -2.53; for GGAUCUUCUCGAUCUAACAAAAAAGACAAAUCUGCCACAAAGCUUGAGAGCAUCUUCGGAUGCAGAGGCGGCAGCCUUCGGUGGCGCGAUAGGGCCAACGUUCUCAAUUAUGACAGGCAAAACGCGUGCUCCGUUGAAUGGAGUUUAUCAUG [C93G C108U C116G]: not above -4.2.
The same measure for GGAUCUUCUCGAUCUAACAAAAAAGACAAAUCUGCCACAAAGCUUGAGAGCAUCUUCGGAUGCAGAGGCGGCAGCCUUCGGUGGCGCGAUAGGGCCAACGUUCUCAACUAUGACACGCCAAACGCGUGCUCCGUUGAAUGGAGUUUAUCAUG [C93G A119C]: -3.47; for GGAUCUUCUCGAUCUAACAAAAAAGACAAAUCUGCCACAAAGCUUGAGAGCAUCUUCGGAUGCAGAGGCGGCAGCCUUCGGUGGCGCGAUAGGGCCUACGUUCUCAACUAUGACACGCAAGACGCGUGCUCCGUUGAAUGGAGUUUAUCAUG [C93G A97U A121G]: not above -4.2.
The same measure for GGAUCUUCUCGAUCUAACAAAAAAGACAAAUCUGCCACAAAGCUUGAGAGCAUCUUCGGAUGCAGAGGCGGCAGCCUUCGGUGGCGCGAUAGUGCCCACGUUCUCAACUAUGACACGCAAAACGCGUGCUCCGUUGAAUGGAGUUUAUCAUG [C93U A97C]: -0.557; for GGAUCUUCUCGAUCUAACAAAAAAGACAAAUCUGCCACAAAGCUUGAGAGCAUCUUCGGAUGCAGAGGCGGCAGCCUUCGGUGGCGCGAUAGUGCCUACGUUCUCAACUAUGACACGCAAAACGCGUGCUCCGUUGAAUGGAGUUUAUCAUG [C93U A97U]: -2.14.
Turning to GGAUCUUCUCGAUCUAACAAAAAAGACAAAUCUGCCACAAAGCUUGAGAGCAUCUUCGGAUGCAGAGGCGGCAGCCUUCGGUGGCGCGAUAGGGCCAACGUUCUCAAGUAUGACACGCAAAACGCGUGCUCCGUUGAAUGGAGUUUAUCAUG [C93G C108G], the “polymerase ribozyme fitness (log ratio)” value is -3.9.
The same measure for GGAUCUUCUCGAUCUAACAAAAAAGACAAAUCUGCCACAAAGCUUGAGAGCAUCUUCGGAUGCAGAGGCGGCAGCCUUCGGUGGCGCGAUAGGGCCAACGUUCUCAAUUAUGACACGCAAAACGCGUGCUCCGUUGAAUGGAGUUUAUCAUG [C93G C108U]: -3.94; for GGAUCUUCUCGAUCUAACAAAAAAGACAAAUCUGCCACAAAGCUUGAGAGCAUCUUCGGAUGCAGAGGCGGCAGCCUUCGGUGGCGCGAUAGGGCCUACGUUCUCAACUAUGACACGCAAAACGCGUGCUCCGUUGAAUGGAGUUUAUCAUG [C93G A97U]: -3.39.
The same measure for GGAUCUUCUCGAUCUAACAAAAAAGACAAAUCUGCCACAAAGCUUGAGAGCAUCUUCGGAUGCAGAGGCGGCAGCCUUCGGUGGCGCGAUAGGGCCAACGUGCUCAACUAUGACACGCAAAACGCGUGCUCCGUUGAAUGGAGUUUAUCAUG [C93G U102G]: not above -4.2; for GGAUCUUCUCGAUCUAACAAAAAAGACAAAUCUGCCACAAAGCUUGAGAGCAUCUUCGGAUGCAGAGGCGGCAGCCUUCGGUGGCGCGAUAGGGCCAACGUUCUCAACUAUGACACGCAAAAUGCGUGCUCCGUUGAAUGUAGUUUAUCAUG [C93G C123U G141U]: -2.27.
GGAUCUUCUCGAUCUAACAAAAAAGACAAAUCUGCCACAAAGCUUGAGAGCAUCUUCGGAUGCAGAGGCGGCAGCCUUCGGUGGCGCGAUAGGGCCAACGUUCUAAGCUAUGACACGCAAAACGCGUGCUCCGUUGAAUGUAGUUUAUCAUG [C93G C105A A107G G141U]: the “polymerase ribozyme fitness (log ratio)” value is not above -4.2.
The same measure for GGAUCUUCUCGAUCUAACAAAAAAGACAAAUCUGCCACAAAGCUUGAGAGCAUCUUCGGAUGCAGAGGCGGCAGCCUUCGGUGGCGCGAUAGGGCCGACGUUCUCAACUAUGACACGCAAAACGCGUGCUCCGUUGAAUCGAGUUUUUGAUG [C93G A97G G140C A147U C149G]: not above -4.2.
